Data on one substance can be found in US20110201024A1.

Some results are limits rather than exact numbers.

The target of the assay is hRLuc-connector-DhaA.H272F-Flag fusion protein with covalently bound biotin-C18H32O4- (after treatment with biotin-C18H32O4-Cl) (Renilla; Rhodococcus rhodochrous) (UniProt P0A3G2). Description: capture on streptavidin-coated 96 well plate after treatment with biotin-C18H32O4-Cl, read as luciferase activity.

With “streptavidin (SA), coated on 96 well plates (Pierce) or on MagnaBind beads (Pierce #21344) (from UniProt P22629 37-163)”, the efficiency of capturing (percent of Renilla luciferase activity added to the plate) is greater than 50%.
